{"source": "patent US20230250154A1", "about": "(CYTONICS, published 2023)", "assay_in_all_cases": "cell-based or functional assay", "key": {"ADAMTS4": {"target": "T1, ADAMTS4 (human, UniProt O75173 213-685, limits assumed)", "T1 sequence (looked up)": "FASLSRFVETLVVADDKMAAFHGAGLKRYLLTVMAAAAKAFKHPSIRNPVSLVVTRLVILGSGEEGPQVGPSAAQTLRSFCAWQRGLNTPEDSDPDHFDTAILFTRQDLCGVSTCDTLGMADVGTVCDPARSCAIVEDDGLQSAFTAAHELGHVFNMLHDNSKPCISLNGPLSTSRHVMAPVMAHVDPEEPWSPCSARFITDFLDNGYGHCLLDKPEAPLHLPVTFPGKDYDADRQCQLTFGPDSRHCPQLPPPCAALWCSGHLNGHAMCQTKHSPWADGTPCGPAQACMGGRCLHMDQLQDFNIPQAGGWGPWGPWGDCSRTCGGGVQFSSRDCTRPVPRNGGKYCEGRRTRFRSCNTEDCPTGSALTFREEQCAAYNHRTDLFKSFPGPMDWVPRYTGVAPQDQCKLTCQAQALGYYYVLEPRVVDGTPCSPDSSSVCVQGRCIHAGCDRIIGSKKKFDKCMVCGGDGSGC"}, "ADAMTS5": {"target": "T2, ADAMTS5 (human, UniProt Q9UNA0 262-622, limits assumed)", "T2 sequence (looked up)": "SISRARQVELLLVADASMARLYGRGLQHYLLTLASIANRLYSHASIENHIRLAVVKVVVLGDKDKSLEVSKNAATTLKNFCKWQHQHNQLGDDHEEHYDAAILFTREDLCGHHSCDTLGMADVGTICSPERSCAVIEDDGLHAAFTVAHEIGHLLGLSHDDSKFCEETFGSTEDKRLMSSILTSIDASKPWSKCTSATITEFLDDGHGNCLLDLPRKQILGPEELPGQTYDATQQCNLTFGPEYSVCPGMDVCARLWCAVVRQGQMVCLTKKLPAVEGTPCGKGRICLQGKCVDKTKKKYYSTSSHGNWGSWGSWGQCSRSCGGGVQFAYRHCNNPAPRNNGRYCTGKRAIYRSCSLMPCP"}, "MMP1": {"target": "T3, MMP1 (human, UniProt P03956 100-469, limits assumed)", "T3 sequence (looked up)": "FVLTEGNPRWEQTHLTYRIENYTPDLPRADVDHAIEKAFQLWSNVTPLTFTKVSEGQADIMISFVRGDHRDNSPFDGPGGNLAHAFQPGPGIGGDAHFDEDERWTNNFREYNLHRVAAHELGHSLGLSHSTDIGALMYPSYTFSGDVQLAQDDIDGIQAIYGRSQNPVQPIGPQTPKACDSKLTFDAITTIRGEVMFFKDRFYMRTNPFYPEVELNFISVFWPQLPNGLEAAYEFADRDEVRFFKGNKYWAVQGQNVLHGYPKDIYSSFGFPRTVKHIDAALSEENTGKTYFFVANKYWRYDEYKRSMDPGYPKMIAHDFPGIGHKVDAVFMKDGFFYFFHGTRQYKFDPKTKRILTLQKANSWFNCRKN"}, "MMP8": {"target": "MMP8 (human, UniProt P22894 101-467, limits assumed)", "sequence (P22894 101-467 limits assumed)": "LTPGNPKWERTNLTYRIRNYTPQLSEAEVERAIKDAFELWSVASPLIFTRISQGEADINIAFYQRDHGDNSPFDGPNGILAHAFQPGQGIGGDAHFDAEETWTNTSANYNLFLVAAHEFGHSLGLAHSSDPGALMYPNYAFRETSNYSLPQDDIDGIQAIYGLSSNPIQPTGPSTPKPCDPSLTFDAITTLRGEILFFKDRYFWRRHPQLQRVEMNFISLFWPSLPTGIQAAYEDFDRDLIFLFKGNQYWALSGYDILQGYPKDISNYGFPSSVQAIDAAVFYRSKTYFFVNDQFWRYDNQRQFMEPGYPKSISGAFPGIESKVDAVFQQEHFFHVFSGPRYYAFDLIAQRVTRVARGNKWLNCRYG"}, "MMP13": {"target": "MMP13 (human, UniProt P45452 104-471, limits assumed)"}, "MMP2": {"target": "T4, MMP2 (human, UniProt P08253 110-660, limits assumed)", "T4 sequence (looked up)": "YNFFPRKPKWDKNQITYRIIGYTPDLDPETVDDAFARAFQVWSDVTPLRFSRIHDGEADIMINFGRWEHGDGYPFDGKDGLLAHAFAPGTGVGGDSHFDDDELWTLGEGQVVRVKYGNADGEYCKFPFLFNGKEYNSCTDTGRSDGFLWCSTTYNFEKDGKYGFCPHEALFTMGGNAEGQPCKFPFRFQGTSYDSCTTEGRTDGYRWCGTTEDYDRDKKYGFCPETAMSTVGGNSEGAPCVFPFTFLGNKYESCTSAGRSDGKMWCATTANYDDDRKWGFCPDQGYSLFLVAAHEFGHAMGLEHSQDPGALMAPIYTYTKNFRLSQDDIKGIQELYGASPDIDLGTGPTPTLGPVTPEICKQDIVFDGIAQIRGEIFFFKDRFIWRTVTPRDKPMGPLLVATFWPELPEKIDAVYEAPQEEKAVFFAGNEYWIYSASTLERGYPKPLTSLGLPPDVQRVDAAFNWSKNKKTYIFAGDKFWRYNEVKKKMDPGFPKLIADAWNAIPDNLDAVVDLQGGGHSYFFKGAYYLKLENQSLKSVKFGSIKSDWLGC"}, "MMP9": {"target": "MMP9 (human, UniProt P14780 107-707, limits assumed)", "sequence (P14780 107-707 limits assumed)": "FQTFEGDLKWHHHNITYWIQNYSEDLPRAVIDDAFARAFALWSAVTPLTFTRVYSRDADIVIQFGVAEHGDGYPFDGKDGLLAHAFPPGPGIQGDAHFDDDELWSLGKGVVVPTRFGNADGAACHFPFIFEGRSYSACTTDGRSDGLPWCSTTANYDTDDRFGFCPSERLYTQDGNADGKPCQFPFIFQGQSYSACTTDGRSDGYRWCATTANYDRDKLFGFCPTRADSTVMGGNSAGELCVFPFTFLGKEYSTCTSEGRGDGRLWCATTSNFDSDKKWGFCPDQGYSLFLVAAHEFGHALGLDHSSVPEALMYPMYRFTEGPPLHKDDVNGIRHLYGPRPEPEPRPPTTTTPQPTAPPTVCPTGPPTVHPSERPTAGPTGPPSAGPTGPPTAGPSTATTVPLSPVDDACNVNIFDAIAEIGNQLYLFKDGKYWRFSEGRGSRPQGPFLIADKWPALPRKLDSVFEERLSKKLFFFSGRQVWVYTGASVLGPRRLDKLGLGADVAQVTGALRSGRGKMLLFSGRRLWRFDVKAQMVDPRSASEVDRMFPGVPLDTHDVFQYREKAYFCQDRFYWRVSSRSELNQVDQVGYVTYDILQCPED"}, "MMP3": {"target": "MMP3 (human, UniProt P08254 100-477, limits assumed)", "sequence (P08254 100-477 limits assumed)": "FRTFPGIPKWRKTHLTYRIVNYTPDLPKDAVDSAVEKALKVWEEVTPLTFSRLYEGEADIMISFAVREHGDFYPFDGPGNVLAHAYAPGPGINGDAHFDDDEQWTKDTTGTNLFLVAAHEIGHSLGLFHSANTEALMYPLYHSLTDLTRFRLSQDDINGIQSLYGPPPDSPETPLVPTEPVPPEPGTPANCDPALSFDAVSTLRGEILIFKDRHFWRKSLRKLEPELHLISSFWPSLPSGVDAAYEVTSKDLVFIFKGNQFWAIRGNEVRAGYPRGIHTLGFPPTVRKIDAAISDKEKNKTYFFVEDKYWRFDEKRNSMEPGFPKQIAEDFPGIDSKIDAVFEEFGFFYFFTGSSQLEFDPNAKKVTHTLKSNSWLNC"}, "Elastase": {"target": "Elastase"}, "Cathepsin G": {"target": "T5, Cathepsin G (UniProt P08311 21-244)", "T5 sequence (looked up)": "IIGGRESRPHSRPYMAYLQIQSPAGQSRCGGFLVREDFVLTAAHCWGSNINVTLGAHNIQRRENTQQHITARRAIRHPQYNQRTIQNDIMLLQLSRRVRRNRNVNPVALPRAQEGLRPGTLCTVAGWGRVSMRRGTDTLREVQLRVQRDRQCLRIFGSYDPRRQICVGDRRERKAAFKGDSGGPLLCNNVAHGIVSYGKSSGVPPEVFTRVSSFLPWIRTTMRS"}, "MMP7": {"target": "T6, MMP7 (UniProt P09237 95-267, limits assumed)", "T6 sequence (looked up)": "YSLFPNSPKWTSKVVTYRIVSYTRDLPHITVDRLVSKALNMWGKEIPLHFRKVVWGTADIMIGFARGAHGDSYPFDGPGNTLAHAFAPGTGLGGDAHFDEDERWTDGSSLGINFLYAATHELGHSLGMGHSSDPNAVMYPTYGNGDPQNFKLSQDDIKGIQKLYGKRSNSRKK"}}, "data": [{"binder": "Variant A2M, bait region SEQ ID NO 14 (other) SVSGKPQYMVLVPSLLHTETTEKGCVLLSYLNETVTVSASLESVRGNRSLFTDLEAENDVLHCVAFAVPKSSSNEEVMFLTVQVKGPTQEFKKRTTVMVKNEDSLVFVQTDKSIYKPGQTVKFRVVSMDENFHPLNELIPLVYIQDPKGNRIAQWQSFQLEGGLKQFSFPLSSEPFQGSYKVVVQKKSGGRTEHPFTVEEFVLPKFEVQVTVPKIITILEEEMNVSVCGLYTYGKPVPGHVTVSICRKYSDASDCHGEDSQAFCEKFSGQLNSHGCFYQQVKTKVFQLKRKEYEMKLHTEAQIQEEGTVVELTGRQSSEITRTITKLSFVKVDSHFRQGIPFFGQVRLVDGKGVPIPNKVIFIRGNEANYYSNATTDEHGLVQFSINTTNVMGTSLTVRVNYKDRSPCYGYQWVSEEHEEAHHTAYLVFSPSKSFVHLEPMSHELPCGHTQTVQAHYILNGGTLLGLKKLSFYYLIMAKGGIVRTGTHGLLVKQEDMKGHFSISIPVKSDIAPVARLLIYAVLPTGDVIGDSAKYDVENCLANKVDLSFSPSQSLPASHAHLRVTAAPQSVCALRAVDQSVLLMKPDAELSASSVYNLLPEKDLTGFPGPLNDQDDEDCINRHNVYINGITYTPVSSTNEKDMYSFLEDMGLKAFTNSKIRKPKMCPQLEHGPEGEGEGEGIPRYLTAENFFGVSEDLVVQISELEGRGSVEEPHTKLRKYFPETWIWDLVVVNSAGVAEVGVTVPDTITEWKAGAFCLSEDAGLGISSTASLRAFQPFFVELTMPYSVIRGEAFTLKATVLNYLPKCIRVSVQLEASPAFLAVPVEKEQAPHCICANGRQTVSWAVTPKSLGNVNFTVSAEALESQELCGTEVPSVPEHGRKDTVIKPLLVEPEGLEKETTFNSLLCPSGGEVSEELSLKLPPNVVEESARASVSVLGDILGSAMQNTQNLLQMPYGCGEQNMVLFAPNIYVLDYLNETQQLTPEIKSKAIGYLNTGYQRQLNYKHYDGSYSTFGERYGRNQGNTWLTAFVLKTFAQARAYIFIDEAHITQALIWLSQRQKDNGCFRSSGSLLNNAIKGGVEDEVTLSAYITIALLEIPLTVTHPVVRNALFCLESAWKTAQEGDHGSHVYTKALLAYAFALAGNQDKRKEVLKSLNEEAVKKDNSVHWERPQKPKAPVGHFYEPQAPSAEVEMTSYVLLAYLTAQPAPTSEDLTSATNIVKWITKQQNAQGGFSSTQDTVVALHALSKYGAATFTRTGKAAQVTIQSSGTFSSKFQVDNNNRLLLQQVSLPELPGEYSMKVTGEGCVYLQTSLKYNILPEKEEFPFALGVQTLPQTCDEPKAHTSFQISLSVSYTGSRSASNMAIVDVKMVSGFIPLKPTVKMLERSNHVSRTEVSSNHVLIYLDKVSNQTLSLFFTVLQDVPVRDLKPAIVKVYDYYETDEFAIAEYNAPCSKDLGNADYKDDDDKGASHHHHHH", "values": [{"measurement": "Protease Inhibition (% of WT)", "setting": "ADAMTS4", "value": "236 % of WT"}, {"measurement": "Protease Inhibition (% of WT)", "setting": "ADAMTS5", "value": "105 % of WT"}, {"measurement": "Protease Inhibition (% of WT)", "setting": "MMP1", "value": "60 % of WT"}, {"measurement": "Protease Inhibition (% of WT)", "setting": "MMP8", "value": "39 % of WT"}, {"measurement": "Protease Inhibition (% of WT)", "setting": "MMP13", "value": "66 % of WT"}, {"measurement": "Protease Inhibition (% of WT)", "setting": "MMP2", "value": "10 % of WT"}, {"measurement": "Protease Inhibition (% of WT)", "setting": "MMP9", "value": "14 % of WT"}, {"measurement": "Protease Inhibition (% of WT)", "setting": "MMP3", "value": "169 % of WT"}, {"measurement": "Protease Inhibition (% of WT)", "setting": "Elastase", "value": "67 % of WT"}, {"measurement": "Protease Inhibition (% of WT)", "setting": "Cathepsin G", "value": "99 % of WT"}, {"measurement": "Protease Inhibition (% of WT)", "setting": "MMP7", "value": "61 % of WT"}]}]}
